From patent US20050221426A1

Columns and labels:
Experiment in all cases: cell-based or functional assay
GLP1R = GLP1R (UniProt P43220)
[1] = molecular target: Vasoactive Intestinal Peptide 1 receptor (UniProt P32241)
Melanocortin 5 receptor = Melanocortin 5 receptor (UniProt P33032)
Melanocortin 1 receptor = Melanocortin 1 receptor (UniProt Q01726)
CRHR1 = CRHR1 (UniProt P34998)
Sequence of CRHR1 (P34998 24-415 limits assumed): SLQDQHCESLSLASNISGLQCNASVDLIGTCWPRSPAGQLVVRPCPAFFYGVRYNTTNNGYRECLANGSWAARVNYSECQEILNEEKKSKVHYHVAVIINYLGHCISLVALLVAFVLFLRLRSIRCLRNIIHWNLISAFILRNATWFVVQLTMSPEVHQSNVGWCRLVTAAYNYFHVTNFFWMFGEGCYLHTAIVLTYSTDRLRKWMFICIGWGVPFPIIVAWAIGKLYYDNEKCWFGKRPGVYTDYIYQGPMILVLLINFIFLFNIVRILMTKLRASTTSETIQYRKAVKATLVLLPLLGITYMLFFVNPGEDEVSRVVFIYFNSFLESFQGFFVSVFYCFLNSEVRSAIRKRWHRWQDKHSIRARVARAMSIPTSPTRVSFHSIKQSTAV

Sequence of Melanocortin 1 receptor (Q01726 whole entry): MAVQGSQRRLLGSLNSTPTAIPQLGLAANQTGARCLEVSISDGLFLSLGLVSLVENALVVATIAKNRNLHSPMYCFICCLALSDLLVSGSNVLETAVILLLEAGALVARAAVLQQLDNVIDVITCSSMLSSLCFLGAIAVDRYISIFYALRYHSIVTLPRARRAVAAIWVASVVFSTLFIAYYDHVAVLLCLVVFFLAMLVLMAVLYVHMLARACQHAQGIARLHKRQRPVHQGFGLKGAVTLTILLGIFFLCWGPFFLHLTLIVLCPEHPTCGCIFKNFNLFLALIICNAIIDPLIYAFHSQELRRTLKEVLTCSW
Sequence of Vasoactive Intestinal Peptide 1 receptor (P32241 31-457): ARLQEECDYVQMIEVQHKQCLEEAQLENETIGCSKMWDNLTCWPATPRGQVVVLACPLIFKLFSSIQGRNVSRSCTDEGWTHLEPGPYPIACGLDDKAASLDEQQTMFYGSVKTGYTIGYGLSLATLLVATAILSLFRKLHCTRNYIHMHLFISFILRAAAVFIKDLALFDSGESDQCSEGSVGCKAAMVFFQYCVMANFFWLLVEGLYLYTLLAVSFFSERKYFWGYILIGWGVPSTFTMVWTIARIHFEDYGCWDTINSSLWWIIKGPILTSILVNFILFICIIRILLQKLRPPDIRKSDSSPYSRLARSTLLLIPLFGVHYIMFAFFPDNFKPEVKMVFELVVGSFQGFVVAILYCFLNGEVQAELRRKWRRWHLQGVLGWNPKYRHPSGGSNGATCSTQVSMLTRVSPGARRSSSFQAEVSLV
Sequence of Melanocortin 5 receptor (P33032 whole entry): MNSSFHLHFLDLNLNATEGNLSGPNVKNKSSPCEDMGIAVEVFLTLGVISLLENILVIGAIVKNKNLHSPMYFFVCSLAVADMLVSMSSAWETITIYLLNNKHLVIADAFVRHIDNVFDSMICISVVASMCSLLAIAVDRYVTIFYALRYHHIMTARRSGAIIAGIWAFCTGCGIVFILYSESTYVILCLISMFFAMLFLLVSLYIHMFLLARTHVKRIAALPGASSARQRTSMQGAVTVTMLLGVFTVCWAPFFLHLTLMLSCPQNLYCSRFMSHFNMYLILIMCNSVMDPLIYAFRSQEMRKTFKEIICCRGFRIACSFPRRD
Sequence of GLP1R (P43220 24-463 limits assumed): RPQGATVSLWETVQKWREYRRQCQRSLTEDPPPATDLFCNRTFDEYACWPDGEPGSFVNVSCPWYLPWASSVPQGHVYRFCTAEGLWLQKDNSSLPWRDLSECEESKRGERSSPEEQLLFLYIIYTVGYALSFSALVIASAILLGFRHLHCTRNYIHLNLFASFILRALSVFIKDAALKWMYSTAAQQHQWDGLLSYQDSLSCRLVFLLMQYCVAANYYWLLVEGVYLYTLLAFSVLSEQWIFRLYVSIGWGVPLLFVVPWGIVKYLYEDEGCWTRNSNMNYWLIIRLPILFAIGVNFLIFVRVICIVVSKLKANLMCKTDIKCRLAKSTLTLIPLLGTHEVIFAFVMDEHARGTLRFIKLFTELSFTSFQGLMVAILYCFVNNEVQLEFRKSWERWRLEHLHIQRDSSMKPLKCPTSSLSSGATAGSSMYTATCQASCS

Molecule: GLP (peptide)
- EC50 of cell response (CNG channel voltage dye assay; NY & H30602) (GLP1R): 3 pM

Molecule: VIP (from UniProt P01282 125-152) (peptide)
- EC50 of cell response (CNG channel voltage dye assay; MDC dye) [1]: 2.4 pM
- EC50 of cell response (CNG channel voltage dye assay; TB & H30602) [1]: 5 pM
- Fmax/Fb maximal response (CNG channel voltage dye assay; MDC dye) [1]: 4.9
- Fmax/Fb maximal response (CNG channel voltage dye assay; TB & H30602) [1]: 5

Molecule: [Nle4-D-Phe7]α-MSH (from UniProt P01189 138-150) (peptide)
- EC50 of cell response (CNG channel voltage dye assay; MDC dye) (Melanocortin 5 receptor): 2.9 pM
- EC50 of cell response (CNG channel voltage dye assay; NR & H30602) (Melanocortin 5 receptor): 1.3 pM
- EC50 of cell response (CNG channel voltage dye assay; NY & H30602) (Melanocortin 5 receptor): 950000 pM
- Fmax/Fb maximal response (CNG channel voltage dye assay; MDC dye) (Melanocortin 5 receptor): 3.6
- Fmax/Fb maximal response (CNG channel voltage dye assay; NR & H30602) (Melanocortin 5 receptor): 3.2
- Fmax/Fb maximal response (CNG channel voltage dye assay; NY & H30602) (Melanocortin 5 receptor): 3.4

Molecule: α-MSH (from UniProt P01189 138-150) (peptide)
- EC50 of cell response (CNG channel voltage dye assay; MDC dye) (Melanocortin 1 receptor): 820000 pM
- EC50 of cell response (CNG channel voltage dye assay; TB & H30602) (Melanocortin 1 receptor): 770000 pM
- Fmax/Fb maximal response (CNG channel voltage dye assay; MDC dye) (Melanocortin 1 receptor): 5
- Fmax/Fb maximal response (CNG channel voltage dye assay; TB & H30602) (Melanocortin 1 receptor): 5.1

B1: CRF (peptide, UniProt P06850 154-194, looked up)
peptide: SEEPPISLDLTFHLLREVLEMARAEQLAQQAHSNRKLMEII
- EC50 of cell response (CNG channel voltage dye assay; MDC dye) (CRHR1): 28 pM
- EC50 of cell response (CNG channel voltage dye assay; NY & H30602) (CRHR1): 28 pM
- Fmax/Fb maximal response (CNG channel voltage dye assay; MDC dye) (CRHR1): 4.2
- Fmax/Fb maximal response (CNG channel voltage dye assay; NY & H30602) (CRHR1): 4.3
